B1: Dolichyl-diphosphooligosaccharide--protein glycosyltransferase subunit OST4 (Saccharomyces cerevisiae), Q99380 (parent)
chain: MISDEQLNSLAITFGIVMMTLIVIYHAVDSTMSPKN
partner: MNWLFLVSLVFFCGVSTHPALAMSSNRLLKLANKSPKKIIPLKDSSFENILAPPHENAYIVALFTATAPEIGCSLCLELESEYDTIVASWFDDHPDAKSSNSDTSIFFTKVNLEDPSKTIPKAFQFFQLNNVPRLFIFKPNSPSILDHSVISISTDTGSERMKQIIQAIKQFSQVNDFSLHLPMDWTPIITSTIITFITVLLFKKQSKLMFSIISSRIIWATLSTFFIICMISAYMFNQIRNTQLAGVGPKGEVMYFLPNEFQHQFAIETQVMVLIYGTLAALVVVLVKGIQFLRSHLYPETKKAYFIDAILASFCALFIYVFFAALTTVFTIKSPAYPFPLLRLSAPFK
B2: Dolichyl-diphosphooligosaccharide--protein glycosyltransferase subunit OST4 (Saccharomyces cerevisiae), Q99380 (parent)
chain: B1 chain
partner: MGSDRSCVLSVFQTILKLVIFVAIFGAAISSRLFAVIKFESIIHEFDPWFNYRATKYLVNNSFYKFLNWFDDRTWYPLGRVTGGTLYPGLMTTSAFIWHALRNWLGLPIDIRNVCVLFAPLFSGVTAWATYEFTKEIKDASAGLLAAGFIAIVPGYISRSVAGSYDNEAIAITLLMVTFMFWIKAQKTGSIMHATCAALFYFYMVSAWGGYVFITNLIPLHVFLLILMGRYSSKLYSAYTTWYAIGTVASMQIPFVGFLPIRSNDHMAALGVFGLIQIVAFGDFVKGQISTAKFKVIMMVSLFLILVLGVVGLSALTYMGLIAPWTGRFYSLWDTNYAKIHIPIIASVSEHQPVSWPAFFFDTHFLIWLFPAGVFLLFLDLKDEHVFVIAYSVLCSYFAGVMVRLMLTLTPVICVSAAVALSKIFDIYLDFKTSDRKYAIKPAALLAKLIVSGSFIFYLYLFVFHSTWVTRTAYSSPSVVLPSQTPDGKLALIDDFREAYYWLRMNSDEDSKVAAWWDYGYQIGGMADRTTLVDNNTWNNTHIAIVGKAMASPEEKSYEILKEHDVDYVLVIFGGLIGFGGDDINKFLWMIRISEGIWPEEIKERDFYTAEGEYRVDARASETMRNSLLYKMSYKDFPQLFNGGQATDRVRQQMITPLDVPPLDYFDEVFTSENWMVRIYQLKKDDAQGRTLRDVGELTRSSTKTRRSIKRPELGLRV

Variants of: B1
Details: with ost3_yeast OST3, P48439

Effect of a mutation on the interaction, disrupting interaction:
V23K
T20K
L21K
I24K
M19K
M18K

Variants of: B2
Details: with stt3_yeast STT3, P39007

Effect of a mutation on the interaction, disrupting interaction:
I24K
M18K
L21K

From IntAct's records for PubMed 10677492
